The values that follow are results of earlier work, collected in PMC5806463.

The series deals with IL-18BP (Homo sapiens) (UniProt O95998).
IL-18BP (Homo sapiens), sequence (O95998 31-194): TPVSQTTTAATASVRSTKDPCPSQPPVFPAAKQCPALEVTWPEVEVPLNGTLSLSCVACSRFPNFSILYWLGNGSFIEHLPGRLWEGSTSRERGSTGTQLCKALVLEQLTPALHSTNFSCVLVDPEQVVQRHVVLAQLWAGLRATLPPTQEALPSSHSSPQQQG

IL-18, sequence (Q14116 37-193): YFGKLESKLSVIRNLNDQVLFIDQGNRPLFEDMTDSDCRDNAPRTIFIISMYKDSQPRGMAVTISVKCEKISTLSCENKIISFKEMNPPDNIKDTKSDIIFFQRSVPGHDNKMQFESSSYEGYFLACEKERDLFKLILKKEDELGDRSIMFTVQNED

Broadly, the Kd is a measure of binding affinity in units of concentration. Regarding IL-18 (from UniProt Q14116), the Kd was 400 pM.
